Measurements: publication PMC7878817

What was measured:
[1] = molecular target: human FcRn (human) (UniProt P55899); test: BLI; pH 6.0
[2] = molecular target: MD65 IgG-YTE (human); test: BLI

Kd [1] [nM]	fold change of affinity (steady state) against MD65 IgG [2] [fold]	fold change of on-rate against MD65 IgG [2] [fold]	Substance
20	–	–	MD65 IgG-YTE
–	10	3	human FcRn (from UniProt P55899 24-297) (receptor)
